The values below come from patent publication US20250277031A1 (BEIJING HANMI PHARMACEUTICAL, published 2025).

Assay [1] concerns the target T1, recombinant human CD47 (human, UniProt Q08722 19-139).
T1 construct: also called antigen CD47
In words: ELISA, plate coated with 1 µg/mL recombinant human CD47, OD450. Here is the method: A 96-well high-adsorption ELISA plate was coated with 1 μg/mL of the recombinant human CD47 (Sino Biological Inc.) at 100 μL per well using carbonate buffer solution, pH=9.6 at 4° C. overnight. The plate was washed 5 times with PBST, and then blocked using PBST with 1% BSA, 300 μL/well, and incubated at 25° C. for 1 hour, and then washed 5 times with PBST. The anti-human CD47 antibody samples and the control CC-90002 (a patent sequence from WO2016109415) were added, 100 μL/well, incubated at 25° C. for 1 hour, and then washed 5 times with PBST. The horseradish peroxidase-labeled anti-mouse IgG antibody (Abcam, catalog number Ab7068) diluted 1:10000 in PBST with 1% BSA was then added, 100 μL per well, and incubated at 25° C. for 1 hour. The plate was washed 5 times with PBST. The colorimetric substrate TMB was added, 100 μL/well, and developed at room temperature for 10 minutes. 1M H₂SO₄ was added, 100 μL/well, to stop the development. The absorbance at 450 nm was read on a microplate reader.
(In general: In an ELISA, binding on a coated surface is turned into a signal by an enzyme label.)

Assay [2] addresses T2, recombinant human CD47-Fc protein (ACROBiosystems, catalog number CD7-H52A5) (human, UniProt Q08722 19-139).
T2 construct: bought; not shown: Fc part of a bought fusion protein, not described
Put plainly: blocking ELISA: plate coated with human CD47-Fc, 2 nM biotin-labelled SIRPα as the blocked ligand, falling OD450 curve; the sheet labels the half-maximal value EC50. Here is the method:
A 96-well high-adsorption ELISA plate was coated with 1 μg/mL of the recombinant human CD47-Fc (ACROBiosystems) at 100 μL per well using carbonate buffer solution, pH=9.6 at 4° C. overnight. The plate was washed 5 times with PBST, and then blocked using PBST with 1% BSA, 300 μL/well, and incubated at 25° C. for 1 hour, and then washed 5 times with PBST. The anti-human CD47 antibody samples were added, 50 μL/well, the biotin-labelled SIRPα (ACROBiosystems) was added at a concentration of 4 nM (a final concentration of 2 nM), 50 μL/well, incubated at 25° C. for 90 minutes, and then washed 5 times with PBST. The Streptavidin-HRP (BD Pharmingen, catalog number 554066) diluted 1:1000 in PBST with 1% BSA was then added, 100 μL per well, and incubated at 25° C. for 1 hour. The plate was washed 5 times with PBST. The colorimetric substrate TMB was added, 100 μL/well, and developed at room temperature for 10 minutes. 1M H₂SO₄ was added, 100 μL/well, to stop the development. The absorbance at 450 nm was read on a microplate reader.

Assay [3] concerns the target T3, recombinant human B7-H2 (ACROBiosystems) (human, UniProt O75144 19-258, limits assumed).
T3 construct: counted here as a B7 family member
T3 sequence (looked up): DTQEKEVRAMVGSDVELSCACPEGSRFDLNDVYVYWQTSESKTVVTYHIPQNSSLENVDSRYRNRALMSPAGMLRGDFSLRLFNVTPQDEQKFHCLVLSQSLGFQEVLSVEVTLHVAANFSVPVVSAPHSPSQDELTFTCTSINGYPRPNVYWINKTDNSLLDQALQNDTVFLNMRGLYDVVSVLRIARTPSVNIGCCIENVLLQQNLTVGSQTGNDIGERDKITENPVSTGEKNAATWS
Put plainly: ELISA, coated recombinant protein. Here is the method:
(§1) Binding specificity of the chimeric anti-human CD47 mAbs was determined by ELISA. A 96-well high-adsorption ELISA plate was coated with 1 μg/mL of the recombinant human PD1, CD28, CTLA4, ICOS, BTLA, CD47, PD-L2, CD80, CD86, B7-H2, CD47, SIRPα and SIRPγ (all from ACROBiosystems), at 100 μL per well using carbonate buffer solution, pH=9.6 at 4° C. overnight. The plate was washed 5 times with PBST, and then blocked using PBST with 1% BSA, 300 μL/well, and incubated at 25° C. for 1 hour, and then washed 5 times with PBST. The chimeric anti-human CD47 mAb samples serially diluted in PBST with 1% BSA and the control CC-90002 and the isotype control were added, 100 μL/well, incubated at 25° C. for 1 hour, and then washed 5 times with PBST. The horseradish peroxidase-labeled anti-human IgG antibody (Chemicon, catalog number AP309P) diluted 1:10000 in PBST with 1% BSA was then added, 100 μL per well, and incubated at 25° C. for 1 hour. The plate was washed 5 times with PBST. The colorimetric substrate TMB was added, 100 μL/well, and developed at room temperature for 10 minutes. 1M H₂SO₄ was added, 100 μL/well, to stop the development. The absorbance at 450 nm was read on a microplate reader.

Assay [4] has as its target T4, recombinant human CD86 (ACROBiosystems) (human, UniProt P42081 26-247, limits assumed).
T4 construct: counted here as a B7 family member
T4 sequence (looked up): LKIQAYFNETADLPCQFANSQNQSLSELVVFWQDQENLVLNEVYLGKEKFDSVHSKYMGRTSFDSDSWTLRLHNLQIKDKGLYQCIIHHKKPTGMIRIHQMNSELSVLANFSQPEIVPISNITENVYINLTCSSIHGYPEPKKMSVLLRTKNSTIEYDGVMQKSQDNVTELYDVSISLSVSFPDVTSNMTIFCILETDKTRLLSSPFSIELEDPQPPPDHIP
In words: ELISA, coated recombinant protein. The procedure: as §1

The target in assay [5] is recombinant human SIRPγ (ACROBiosystems) (human, UniProt Q9P1W8 29-360, limits assumed). Put plainly: ELISA, coated recombinant protein. Here is the method:
as §1

The target in assay [6] is T1, recombinant human CD47. Put plainly: SPR, Biacore X100, antibody captured on Protein A chip, CD47 as analyte. An excerpt: Biacore X100 instrument (purchased from GE) was used to detect the kinetic constant of the chimeric anti-human CD47 monoclonal antibodies binding to its antigen human CD47. This instrument utilizes optical surface plasmon resonance technology to detect the association and dissociation between the molecules coated on the biochip and the molecules to be tested. The main reagent used is Protein A chip (GE Healthcare, 29-1275-57). The experimental procedure is briefly described as follows: the chimeric anti-human CD47 antibodies were diluted in running buffer (1×HBS-EP+10 mM HEPES, 150 mM NaCl, 3 mM EDTA, 0.05% surfactant P20, pH7.4). During the capture-binding phase, the antibodies at a concentration of 2 μg/mL were injected for 60 seconds at a speed of 10 μL/min. During the binding phase, the antigen CD47 was diluted into multiple concentrations with running buffer, injected for 120 seconds at a speed of 30 μL/min respectively. During the dissociation phase, running buffer was injected for 600 seconds at a speed of 10 μL/min. The regeneration condition is 10 mM glycinate solution, pH1.5. Association kinetic constants and dissociation kinetic constants were analyzed and calculated by Biacore X100 evaluation software. The association kinetic constants, dissociation kinetic constants and dissociation equilibrium constants of the chimeric anti-human CD47 antibodies were shown in Table 7.
(In general: In SPR one partner is held on a chip, and binding of the other changes the refractive index at the surface.)

T1 sequence (Q08722 19-139 limits assumed): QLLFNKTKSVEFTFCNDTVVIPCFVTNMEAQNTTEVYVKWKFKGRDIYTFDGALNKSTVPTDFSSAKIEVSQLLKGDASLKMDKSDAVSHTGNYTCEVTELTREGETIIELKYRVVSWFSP
recombinant human SIRPγ (ACROBiosystems), sequence (Q9P1W8 29-360 limits assumed): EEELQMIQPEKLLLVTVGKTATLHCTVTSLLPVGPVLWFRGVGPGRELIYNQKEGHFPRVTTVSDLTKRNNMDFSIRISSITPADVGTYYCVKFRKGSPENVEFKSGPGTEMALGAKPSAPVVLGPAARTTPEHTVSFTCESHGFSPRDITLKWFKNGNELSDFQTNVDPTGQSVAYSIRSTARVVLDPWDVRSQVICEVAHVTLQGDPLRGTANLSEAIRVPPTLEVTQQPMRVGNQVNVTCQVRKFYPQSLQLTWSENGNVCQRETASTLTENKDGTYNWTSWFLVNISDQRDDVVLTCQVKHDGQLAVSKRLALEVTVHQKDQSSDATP
T2 sequence (Q08722 19-139 limits assumed): as the sequence (Q08722 19-139 limits assumed) above

B1: chimeric anti-human CD47 monoclonal antibody mAb-18-5 N297A (antibody, human IgG1, kappa, N297A)
heavy: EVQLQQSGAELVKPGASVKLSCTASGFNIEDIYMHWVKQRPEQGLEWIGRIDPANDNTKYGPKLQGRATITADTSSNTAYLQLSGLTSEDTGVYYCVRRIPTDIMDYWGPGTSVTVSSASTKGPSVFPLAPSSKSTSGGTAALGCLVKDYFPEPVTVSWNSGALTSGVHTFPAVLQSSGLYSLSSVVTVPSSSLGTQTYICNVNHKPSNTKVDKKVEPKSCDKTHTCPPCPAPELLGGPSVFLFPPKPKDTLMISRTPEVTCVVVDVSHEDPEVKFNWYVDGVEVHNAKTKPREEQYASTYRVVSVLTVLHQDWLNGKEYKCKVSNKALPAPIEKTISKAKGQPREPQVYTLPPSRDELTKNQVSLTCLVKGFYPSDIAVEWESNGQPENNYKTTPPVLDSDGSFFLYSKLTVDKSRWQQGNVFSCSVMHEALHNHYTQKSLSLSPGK
light: DIVMTQSQKFMSTSVGDRVSITCKASQNVRTSIAWYQQKSGQSPKTLIYLASNRHTGVPDRFTGSGSGTDFTLTISNVQSEDLADYFCLQHWNYPFTFGSGTKLEIKRTVAAPSVFIFPPSDEQLKSGTASVVCLLNNFYPREAKVQWKVDNALQSGNSQESVTEQDSKDSTYSLSSTLTLSKADYEKHKVYACEVTHQGLSSPVTKSFNRGEC
notes: no further substitution applied
For orientation: EC50 means the midpoint of the concentration-response curve. By IC50 is commonly meant the concentration needed to halve the response being measured. In the case of B1, the EC50 with recombinant human CD47 [1] turned out to be 0.026 nM. In addition, the IC50 in assay [2] is 1.75 nM. Besides, the binding result in assay [3], in assay [4] and in assay [5] was “no binding” in each case.

B2: chimeric anti-human CD47 monoclonal antibody mAb-18-10 (antibody, human IgG1, kappa)
heavy: not shown
light: DIVMTQSQKFMSTSVGDRVSITCKASQNVRTSIAWYQQKPGQSPKTLIYLASNRHTGVPDRFTGSGSGTDFTLTISNVQSEDLADYFCLQHWNYPFTFGSGTKLEIKRTVAAPSVFIFPPSDEQLKSGTASVVCLLNNFYPREAKVQWKVDNALQSGNSQESVTEQDSKDSTYSLSSTLTLSKADYEKHKVYACEVTHQGLSSPVTKSFNRGEC
By Kd is commonly meant the concentration at which binding is half-saturated. The koff is the first-order rate constant of dissociation. The term kon denotes the rate constant with which the complex forms. Consider B2, for which, in the assay with recombinant human CD47 [1], the EC50 turned out to be 0.026 nM. The 50% inhibitory concentration (IC50) in assay [2] was found to be 1.64 nM. The binding result in assay [3] is “no binding”. The binding result in assay [4] was “no binding”. In assay [5], the binding result is “no binding”. In addition, in the assay with recombinant human CD47 [6], the Kd worked out at 1.02 nM, the koff turned out to be 0.00101 s⁻¹ and the kon came out at 994000 M⁻¹ s⁻¹.
